From patent US20260250381A1

T1: human TREM2 (human) (UniProt Q9NZC2)
T1 sequence (looked up): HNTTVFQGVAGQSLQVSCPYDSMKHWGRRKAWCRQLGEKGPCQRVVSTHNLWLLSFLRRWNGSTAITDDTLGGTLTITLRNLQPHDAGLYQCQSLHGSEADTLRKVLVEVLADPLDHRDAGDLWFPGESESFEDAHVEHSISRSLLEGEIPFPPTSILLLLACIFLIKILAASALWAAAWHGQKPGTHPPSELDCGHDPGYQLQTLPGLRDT


Assays:
[1] = biological target: T1, human TREM2 (human); assay: 2nd screen, 2 nM Ab
[2] = biological target: T1, human TREM2 (human); assay: 2nd screen, 10 nM Ab
[3] = biological target: T1, human TREM2 (human); assay: 1st screen, 10 nM Ab

Binder | Binding Signal (fold over 6E7 parental antibody) [1] | Binding Signal (fold over 6E7 parental antibody) [2] | Binding Signal (fold over 6E7 parental antibody) [3]
6E7 variant V75 (antibody, V domains shown) VH: EVQLVQSGAEVKKPGESLKISCKGSGYSFTSYWIAWVRQMPGKGLEWMGIIYPGDSDTRYSPSFQGQVTISADKSISTAYLQWSSLKASDTAMYFCARGRTFYYDSSDYFDYWGQGTLVTVSS VL: DIQMTQSPSSVSASVGDRVTITCRASQGISSWLAWYQQKPGKAPKLLIYAASSLQAGVPSRFSGSGSGTDFTLTISSLQPEDFATYFCQQADSYPRTFGQGTKLEIK | 3.74 fold | 4.52 fold | 4.64 fold
6E7 variant V14 (antibody, V domains shown) VH: EVQLVQSGAEVKKPGESLKISCKGSGYSFGSYWIAWVRQMPGKGLEWMGIIYPGDQDTRYSPSFQGQVTISADKSISTAYLQWSSLKASDTAMYFCARGRTFYYDSSDYFDYWGQGTLVTVSS VL: DIQMTQSPSSVSASVGDRVTITCRASQGISSWLAWYQQKPGKAPKLLIYAASRLQNGVPSRFSGSGSGTDFTLTISSLQPEDFATYFCQQADSFPRTFGQGTKLEIK | 2.57 fold | 4.64 fold | 4.71 fold
6E7 variant V76 (antibody, V domains shown) VH: EVQLVQSGAEVKKPGESLKISCKGSGYSFGSYWIAWVRQMPGKGLEWMGIIYPGDSDTRYSPEFQGQVTISADKSISTAYLQWSSLKASDTAMYFCARQRTFYYDSSDYSDYWGQGTLVTVSS VL: DIQMTQSPSSVSASVGDRVTITCRASQGISSWLAWYQQKPGKAPKLLIYAASSLQKGVPSRFSGSGSGRDFTLTISSLQPEDFATYFCQQADSFPRTFGQGTKLEIK | 4.34 fold | 4.93 fold | 4.57 fold
6E7 variant V3 (antibody, V domains shown) VH: EVQLVQSGAEVKKPGESLKISCKGSGYSFASYWIAWVRQMPGKGLEWMGIIYPGDSDTRYSPSFQDQVTISADKSISTAYLQWSSLKASDTAMYFCARGRTFYYDSSDYFDYWGQGTLVTVSS VL: DIQMTQSPSSVSASVGDRVTITCRASQGISSWLAWYQQKPGKAPKLLIYAASSRQNGVPSRFSGSGSGTDFTLTISSLQPEDFATYFCQQADRFPRTFGQGTKLEIK | 1.95 fold | 2.24 fold | 1.97 fold
6E7 variant V13 (antibody, V domains shown) VH: EVQLVQSGAEVKKPGESLKISCKGSGYSFGSYWIAWVRQMPGKGLEWMGIIYPGDSDTRYSASFQGQVTISADKSISTAYLQWSSLKASDTAMYFCARGRTFYYDSSDYFDYWGQGTLVTVSS VL: DIQMTQSPSSVSASVGDRVTITCRASQGISSWLAWYQQKPGKAPKLLIYAASSLQGGVPSRFSGSGSGTDFTLTISSLQPEDFATYFCQQADSMPRTFGQGTKLEIK | 1.15 fold | 1.35 fold | 1.31 fold
6E7 variant V5 (antibody, V domains shown) VH: EVQLVQSGAEVKKPGESLKISCKGSGYSFTSYWIAWVRQMPGKGLEWMGTIYPGDSDTRYSPSFQGQVTISADKSISTAYLQWSSLKASDTAMYFCARQRTFYYDSSDYFDYWGQGTLVTVSS VL: DIQMTQSPSSVSASVGDRVTITCRASQGISSWLAWYQQKPGKAPKLLIYAASSLQNGVPSRFSGSGSGTDFTLTISSLQPEDFATYFCQQADSHPRTFGQGTKLEIK | 1.25 fold | 2.84 fold | 2.73 fold
6E7 variant V15 (antibody, V domains shown) VH: EVQLVQSGAEVKKPGESLKISCKGSGYSFASYWIAWVRQMPGKGLEWMGTIYPGDSDTRYSPSFQGQVTISADKSISTAYLQWSSLKASDTAMYFCARSRTFYYDSSDYFDYWGQGTLVTVSS VL: DIQMTQSPSSVSASVGDRVTITCRASQGISSWLAWYQQKPGKAPKLLIYAASWLQNGVPSRFSGSGSGTDFTLTISSLQPEDFATYFCQQADSYPRTFGQGTKLEIK | 4.72 fold | 4.78 fold | 5.23 fold
6E7 variant V16 (antibody, V domains shown) VH: EVQLVQSGAEVKKPGESLKISCKGSGYSMTSYWIAWVRQMPGKGLEWMGIIYPGDGDTRYSPSFQGQVTISADKSISTAYLQWSSLKASDTAMYFCARSRTFYYDSSDYFDYWGQGTLVTVSS VL: DIQMTQSPSSVSASVGDRVTITCRASQGISSWLAWYQQKPGKAPKLLIYAASNLQNGVPSRFSGSGSGTDFTLTISSLQPEDFATYFCQQADSFPRTFGQGTKLEIK | 3.57 fold | 4.04 fold | 4.01 fold
6E7 variant V17 (antibody, V domains shown) VH: EVQLVQSGAEVKKPGESLKISCKGSGYSFGSYWIAWVRQMPGKGLEWMGIIYPGDSDTRYSPSFQGQVTISADKSISTAYLQWSSLKASDTAMYFCARSRTFYYDSSDYFDYWGQGTLVTVSS VL: DIQMTQSPSSVSASVGDRVTITCRASQGISSWLAWYQQKPGKAPKLLIYAASSRQNGVPSRFSGSGSGTDFTLTISSLQPEDFATYFCQQADSSPRTFGQGTKLEIK | 4.22 fold | 5.51 fold | 5.37 fold
6E7 variant V4 (antibody, V domains shown) VH: EVQLVQSGAEVKKPGESLKISCKGSGYSFGSYWIAWVRQMPGKGLEWMGIIYPGDSDTRVSPSFQGQVTISADKSISTAYLQWSSLKASDTAMYFCARSRTFYYDSSDYFDYWGQGTLVTVSS VL: DIQMTQSPSSVSASVGDRVTITCRASQGISSWLAWYQQKPGKAPKLLIYAASRLQNGVPSRFSGSGSGTDFTLTISSLQPEDFATYFCQQADSYPRTFGQGTKLEIK | 5.88 fold | 5.51 fold | 6 fold

Second part, the binder after the results:

Binding Signal (fold over 6E7 parental antibody) [1] | Binding Signal (fold over 6E7 parental antibody) [2] | Binding Signal (fold over 6E7 parental antibody) [3] | Binder
4.86 fold | 3.93 fold | 3.84 fold | 6E7 variant V87 (antibody, V domains shown) VH: EVQLVQSGAEVKKPGESLKISCKGSGYSFRSYWIAWVRQMPGKGLEWMGIIYPGDSDVRYSPDFQGQVTISADKSISTAYLQWSSLKASDTAMYFCARSRTFYYDSSDYFDYWGQGTLVTVSS VL: DIQMTQSPSSVSASVGDRVTITCRASQGISSWLAWYQQKPGKAPKLLIYAASSLQWGVPSRFSGSGSGTDFTLTISSLQPEDFATYFCQQADSFPRTFGQGTKLEIK
5.41 fold | 5.37 fold | 5.41 fold | 6E7 variant V85 (antibody, V domains shown) VH: EVQLVQSGAEVKKPGESLKISCKGSGYSFRSYWIAWVRQMPGKGLEWMGTIYPGDSDTRYSPSFQGQVTISADKSISTAYLQWSSLKASDTAMYFCARSRTFYYDSSDYFDYWGQGTLVTVSS VL: DIQMTQSPSSVSASVGDRVTITCRASQGISSWLAWYQQKPGKAPKLLIYAASSRQNGVPSRFSGSGSGTDFTLTISSLQPEDFATYFCQQADSFPRTFGQGTKLEIK
5.57 fold | 5.3 fold | 4.92 fold | 6E7 variant V88 (antibody, V domains shown) VH: EVQLVQSGAEVKKPGESLKISCKGSGYSFGSYWIAWVRQMPGKGLEWMGIIYPGDSDTRYSPSFQGQVTISADKSISTAYLQWSSLKASDTAMYFCARQRTFYYDSSDYFDYWGQGTLVTVSS VL: DIQMTQSPSSVSASVGDRVTITCRASQGISSWLAWYQQKPGKAPKLLIYAASRLQRGVPSRFSGSGSGTDFTLTISSLQPEDFATYFCQQADSSPRTFGQGTKLEIK
0.94 fold | 1.46 fold | 1.33 fold | 6E7 variant V89 (antibody, V domains shown) VH: EVQLVQSGAEVKKPGESLKISCKGSGYSFTSYWIAWVRQMPGKGLEWMGIIYPGDSDTRYSPSFQGQVTISADKSISTAYLQWSSLKASDTAMYFCARQRTFYYDSSDYFDYWGQGTLVTVSS VL: DIQMTQSPSSVSASVGDRVTITCRASQGISSWLAWYQQKPGKAPKLLIYAASSLQNGVPSRFSGSGSGTDFTLTISSLQPEDFATYFCQQADSHPRTFGQGTKLEIK
1.45 fold | 1.62 fold | 1.44 fold | 6E7 variant V84 (antibody, V domains shown) VH: EVQLVQSGAEVKKPGESLKISCKGSGYGFTSYWIAWVRQMPGKGLEWMGIIYPGDSDTRYSPSFQGQVTISADKSISTAYLQWSSLKASDTAMYFCARQRTFYYDSSDYSDYWGQGTLVTVSS VL: DIQMTQSPSSVSASVGDRVTITCRASQGISSWLAWYQQKPGKAPKLLIYGASSLQNGVPSRFSGSGSGTDFTLTISSLQPEDFATYFCQQADSFPRTFGQGTKLEIK
5.17 fold | 5.02 fold | 4.8 fold | 6E7 variant V86 (antibody, V domains shown) VH: EVQLVQSGAEVKKPGESLKISCKGSGYSFGSYWLAWVRQMPGKGLEWMGIIYPGDSDTRYSPSFEGQVTISADKSISTAYLQWSSLKASDTAMYFCARSRTFYYDSSDYFDYWGQGTLVTVSS VL: DIQMTQSPSSVSASVGDRVTITCRASQGISSWLAWYQQKPGKAPKLLIYAASSRQNGVPSRFSGSGSGTDFTLTISSLQPEDFATYFCQQADSFPRTFGQGTKLEIK
0.83 fold | 1.38 fold | 1.43 fold | 6E7 variant V77 (antibody, V domains shown) VH: EVQLVQSGAEVKKPGESLKISCKGSGYSFTSYWIAWVRQMPGKGLEWMGIIYPGDSDTRYSPSFQGQVTISADKSISTAYLQWSSLKASDTAMYFCARQRTFYYDSSDYFDYWGQGTLVTVSS VL: DIQMTQSPSSVSASVGDRVTITCRASQGISSWLAWYQQKPGKAPKLLIYAASSRQNGVPSRFSGSGSGTDFTLTISSLQPEDFATYFCQQADSFPRTFGQGTKLEIK
